Measured values as given in the supplement of paper PMC9170038.

Test system: MS2 coat protein
Experiment: apparent KD of MS2 coat protein; designed switch direction (-1 OFF switch, 1 ON switch): -1; higher = weaker reporter binding
Outline: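 SNAP-549-labelled MS2 coat protein was titrated, doubling from 0.7 or 1.5 nM to 3 µM, over designed RNA switches transcribed on Illumina chips by stalled E. coli RNA polymerase. Runs were done without input, with 200 uM small-molecule ligand, or with an oligonucleotide input. Apparent KD is the per-design median over clusters of curve-fitted normalised fluorescence.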

[1] = input ligand: microRNA oligo, concentration not stated
[2] = Eterna round: R95, input ligand: FMN 200 uM
[3] = Eterna round: R95, input ligand: microRNA oligo, concentration not stated
[4] = Eterna round: R95, input ligand: none

Sequence	apparent KD of MS2 coat protein (input ligand: FMN 200 uM) [µM]	apparent KD of MS2 coat protein [1] [µM]	apparent KD of MS2 coat protein (input ligand: none) [µM]	apparent KD of MS2 coat protein [2] [µM]	apparent KD of MS2 coat protein [3] [µM]	apparent KD of MS2 coat protein [4] [µM]
ACAUGUCAUCGAGGAUAUUGGACACAUGAGGAUCACCCAUGUACUCGGAUGCUCUAGCAUGAGUUCGAGAAGGCGAUGUACAUU [Ex NG2 #79] (Eterna round: R96, puzzle: Exclusion NG 2)	1.35	0.234	0.593	–	–	–
ACAUGUCAUUGAGGAUAUUGCAAACAUGAGGAUCACCCAUGUAAACGGAUGCUCUUACGUGGGUUCGAGAAGGCGAUGUACAUU [Ex NG2 #93] (Eterna round: R96, puzzle: Exclusion NG 2)	0.93	0.0398	0.242	–	–	–
ACAUGUUAUCCAUGAUAUCACAUGAGGAUCACCCAUGUUAUGGCGAUUUUGAGGUGUAAGUUUUGUGCUCGUCUUAU [JR_STOV1_Sub057] (Eterna round: R97, puzzle: Sensor, turn-off variant 1)	0.0801	–	0.0894	–	–	–
ACAUGUUAUCCAUGAUAUCACAUGAGGAUCACCCAUGUUAUGGCGAUUUUGAGGUGUAAGUUUUUUGCUCGUCUUAU [JR_STOV1_Sub058] (Eterna round: R97, puzzle: Sensor, turn-off variant 1)	0.0515	–	0.0611	–	–	–
ACAUGUUAUCCAUGAUAUUACAUGAGGAUCACCCAUGUUAUGGCGAUUUUGAUGUGUAAGUUUGUUGCUCGUCUUAU [JR_STOV1_Sub060] (Eterna round: R97, puzzle: Sensor, turn-off variant 1)	0.0409	–	0.0481	–	–	–
ACAUGUUGUCCAUGAUAUUACAUGAGGAUCACCCAUGUUAUUGUGAUUUUGAUGUGUAAGUUUGUUGCUCGUCUUAU [JR_STOV1_Sub063] (Eterna round: R97, puzzle: Sensor, turn-off variant 1)	0.0298	–	0.0294	–	–	–
ACCAUAGAUGUAGGAUAUCCAUGAAGAUAACAAGGAGAAGGACAUGAGGAUCACCCAUGUAAGUAUUAUGAAUGUAGCGACAGC [Meechl Ex NG1] (Eterna round: R96, puzzle: Exclusion NG 1)	0.0821	0.034	0.0595	–	–	–
ACCAUGGUUGAAGCUAACAUGAGGAUCACCCAUGUAAGCUGCUAGGAUAUGCAGAGGCCCAGAAAGCAGAAGGAGCAGUACUGC [Diatzagequ] (Eterna round: R96, puzzle: Exclusion NG 3)	0.0142	0.0106	0.0149	–	–	–
ACCAUUUACUAAUCCUCUAUACAUGAGGAUCACCCAUGUUCUGAGGAUAUCAUCGUUCGCCGCGUUGAGAAGGCAGAGCAUUCG [Ariestion] (Eterna round: R96, puzzle: Exclusion NG 3)	0.157	0.0224	0.0248	–	–	–
ACCUCACAUGAGGAUCACCCAUGUCAGGAUAUCUAUUAUUGCAGCAUUCCUGUCGCUGAGAGAAGGGACAUUAA [EX1 #28] (Eterna round: R97, puzzle: Exclusion 1)	0.0294	–	0.0237	–	–	–
ACGAUGACCGAAAAGUGUUAACUGACAUGAGGAUCACCCAUGUAGGAUAUGGCUACGAAAAGUAGUCAGAAGGGCAUGUCAUCA [Omei Exc(NG) 3 Av8] (Eterna round: R96, puzzle: Exclusion NG 3)	0.027	0.0187	0.0273	–	–	–
ACGCAUUGCCUUUGGUAGUGCGUAACAUGAGGAUCACCCAUGUAGGAUAUGGUAGGCUUUGCUUACCAGAAGGACAUUAUAUUC [JL ENG3 1.03] (Eterna round: R96, puzzle: Exclusion NG 3)	0.0694	0.0221	0.0219	–	–	–
ACGCCGCAAGGAUAUCGUAAAGCAGACAUGAGGAUCACCCAUGUGAUAUCAUAAAGGCCACGAGAAGGUGCACAAG [Quoredin] (puzzle: Exclusion 5)	–	–	–	0.0358	0.0212	0.0245
ACGCUAUGAGGAUAUACAUGAGGAUCACCCAUGUCCCGAUGGUGUUUCCAUUGGAGACGUAGAAGGUAUGGUUA [Eternabot (L2) Solution 13] (Eterna round: R97, puzzle: Exclusion 3)	0.169	–	0.172	–	–	–
ACGUGAGCUGAGGAUAUGCCACUAGCCCGCCUGGCAGAAGGCAGUACAUGAGGAUCACCCAUGUGCGUUGGGUG [Leintice] (Eterna round: R97, puzzle: Exclusion 6)	0.334	–	0.335	–	–	–
ACGUUGUCAGGAUAUCGUUAAUUUAGUUGUUUGUAUUAGUUCGAGAAGGGACAUGAGGAUCACCCAUGUUUGCA [Ex4 #31] (Eterna round: R97, puzzle: Exclusion 4)	0.0327	–	0.0263	–	–	–

Sequence	apparent KD of MS2 coat protein (input ligand: FMN 200 uM) [µM]	apparent KD of MS2 coat protein [1] [µM]	apparent KD of MS2 coat protein (input ligand: none) [µM]	apparent KD of MS2 coat protein [2] [µM]	apparent KD of MS2 coat protein [3] [µM]	apparent KD of MS2 coat protein [4] [µM]
ACGUUUUUUGAGGAUAUGCGAUAUUUUUUUAUCGUAGAAGGCGAUACAUGAGGAUCACCCAUGUUUAUGGGCAU [LRO-Ex6-19] (puzzle: Exclusion 6)	–	–	–	–	0.143	–
ACUAGCGAAAUGCUCGUCUUAUUUUUGUAGAGGUUCUAAACAUGAGGAUCACCCAUGUAGUGGUUUUUGUGGAGGUA [JR_SV3TOV2_Sub071] (puzzle: Sensor v3, turn-off variant 2)	–	–	–	0.222	–	0.349
ACUAGCUUUUUGCAUAGUAGGUUUGGUGCUUCGUAUGCAACAUGAGGAUCACCCAUGUAUUACUGAUGUCGUCGUUU [JR_SV3TOV2_Sub092] (puzzle: Sensor v3, turn-off variant 2)	–	–	–	0.0262	0.0482	0.0278
ACUAGCUUUUUGCAUAGUAGGUUUGGUGCUUCGUAUGCUACAUGAGGAUCACCCAUGUUUUACUGAUGUCGUCGUUU [JR_SV3TOV2_Sub094] (puzzle: Sensor v3, turn-off variant 2)	–	–	–	0.0327	0.0529	0.0323
ACUAGUCUAAAGGAUAUGGACCUGAACAAAUGGCCAGAAGGUUAAACAUGAGGAUCACCCAUGUAGGUGCGCCA [Eternabot (Original) Solution 18] (Eterna round: R97, puzzle: Exclusion 6)	0.0312	–	0.0272	–	–	–
ACUGACAUGAGGAUCACCCAUGUAGAUGUGUUCGCAAGCCUCUAGGAUAUAUCUAACCUACCCGGAUAGAAGGAGAGGUUCCCU [Eternabot solution 9] (Eterna round: R96, puzzle: Exclusion NG 3)	0.0252	0.0211	0.0317	–	–	–
ACUGGUCGAGGAUAUACAAUCGUGCUUCGGCACGUAAGAUCACAUGAGGAUCACCCAUGUAGAAGGUGACCAGU [E2/1-B2] (Eterna round: R97, puzzle: Exclusion 2)	0.135	–	0.0283	–	–	–
ACUGGUCGAGGAUAUACAUGAGGAUCACCCAUGUAGAUCAACCAGCGAUAGCUGGAAUGUAGAAGGCGACCAGU [E3/5-A2] (Eterna round: R97, puzzle: Exclusion 3)	0.191	–	0.0246	–	–	–
ACUUACUGAGGAUAUACAUAGAUUUACAUGAGGAUCACCCAUGUUCCUCUAAGUAUAUAUGUAGAAGGCAGAAGAG [Mat - Exclusion 5 - JL Mod - D40] (Eterna round: R97, puzzle: Exclusion 5)	0.172	–	0.145	–	–	–
ACUUUUUGAGGAUAUACAUUGAUUAACAUGAGGAUCACCCAUGUACAAACAUGUAUUUGUGUAGAAGGCAGAAGAA [JR_Ex5_Sub068] (Eterna round: R97, puzzle: Exclusion 5)	0.0149	–	0.0132	–	–	–
AGAAACUCAAGAGGAUAUCACAUGAGGAUCACCCAUGUAUAGCGCGCUAUGCUAGUCCUCGUAUUUGAGAAGGUUUGAAAUAAG [Mat - Exclusion NG 2 - Mod of JL - D79] (Eterna round: R96, puzzle: Exclusion NG 2)	0.0298	0.0125	0.0183	–	–	–
AGAAAUGCCCAUGGCCGCAAGCCUUUUGCUUGUCUUACCACAUGAGGAUCACCCAUGUGACAUGGGCUCCUUAUAAU [Verileve] (puzzle: Sensor v3, turn-off variant 2)	–	–	–	0.014	0.0092	0.0125
AGAAGUAGAAACCGAUCCUACAUGAGGAUCACCCAUGUAGCAAGACGUGCACGCGAAGCUCGUCAGACUACCAGAAA [salish99_TOv1_r3_005] (puzzle: Sensor v3, turn-off variant 1)	–	–	–	0.159	0.223	0.337
AGAAGUAGAAACCGAUCCUACAUGAGGAUCACCCAUGUAGCAAGACGUGCACGCGAAGCUCGUCAGACUACCAGAAG [salish99_TOv1_r3_001] (puzzle: Sensor v3, turn-off variant 1)	–	–	–	0.379	0.821	0.685
AGAAGUAGAAACCGAUCCUACAUGAGGAUCACCCAUGUAGCAAGACGUGCACGCGAAGCUCGUCAGACUACCAGAAG [solution 24] (Eterna round: R96, puzzle: Sensor v2, turn-off variant)	0.462	0.288	0.345	–	–	–
AGAAGUAGUAACCGAUCCUACAUGAGGAUCACCCAUGUAGCCAGACGUGCACGCGAAGCUCGUCAGACUACCAGAUG [salish99_TOv1_r3_026] (puzzle: Sensor v3, turn-off variant 1)	–	–	–	0.618	0.447	0.398
